{
  "source": "paper PMC13316013",
  "about": "“Shared structural mechanisms of alternating access between the secondary peptide transporter SbmA and ABC transporters” (Nature Communications, 2026)",
  "key": {"SbmA [1]": {"biological_target": "T1, SbmA (Escherichia coli, UniProt P0AFY6)", "T1 construct": "SbmA, inner membrane peptide transporter of Escherichia coli, cloned from genomic DNA into pBXC3H; Homodimer; no cleavage is described; also called SbmA-like peptide transporter (SLiPT) family member; source: E. coli MC1061, purified (Nickel Sepharose, SEC) in DDM; for some samples reconstituted into MSP1E3D1 lipid nanodiscs", "experiment": "cryo-EM structure; SbmA in complex with Fab S11-1 in lipid nanodiscs (MSP1E3D1; DOPC:POPG:POPO-cardiolipin 13:4:1), SEC in 20 mM MES pH 5.5, 300 KCl; 300 kV", "conditions": "both partners purified"}, "SbmA [2]": {"biological_target": "T1, SbmA", "experiment": "cryo-EM structure; SbmA incubated with SB2 in a 1:2 molar ratio, 30 min, 4 °C; complex purified by SEC in TBS pH 7.4, 0.05% DDM; 200 kV (Table 1 names lipid nanodiscs for identifier D)", "conditions": "both partners purified"}, "SbmA [3]": {"biological_target": "T1, SbmA", "experiment": "cryo-EM structure; SbmA incubated with SB2 in a 1:2 molar ratio, 30 min, 4 °C; complex purified by SEC in TBS pH 7.4, 0.05% DDM; 200 kV (Table 1 names lipid nanodiscs for identifier D)", "conditions": "both partners purified", "remark": "listed apart in the source"}, "[4]": {"biological_target": "the molecule itself", "experiment": "cryo-EM structure; SbmA in complex with Fab S11-1 in lipid nanodiscs (MSP1E3D1; DOPC:POPG:POPO-cardiolipin 13:4:1), SEC in 20 mM MES pH 5.5, 300 KCl; 300 kV"}},
  "data": [
    {"binder": "Fab fragment Fab S11-1 (Fab, V domains shown) VH: LKLLDSGAELVKPGASVKLSCTASGFNIKDTYMYWVKQRPDQGLEWIGRIDPANGNSKYDPKFQGKATITADTSSNTAYLQVSSLTSEDTAVYYCARWLVRGRRGTMDYWGQGTSVTVSS VL: DIVMTQSPAILSASPGEKVTMTCRASSSVSYMHWYQQKPGSSPKPWIYATSNLASGVPARFSGSGSGTSYSLTISRVEAEDAATYYCQQWSSNPRTFGGGTKLEIK", "values": [
      {"measurement": "stoichiometry N", "setting": "SbmA [1]", "result": 1, "unit": "Fab per SbmA dimer"}
    ]},
    {"binder": "Sybody2 (VHH, synthetic nanobody (sybody, 16 kDa) selected against biotinylated SbmA T403C; also called SB2; Sb2) VHH: QVQLVESGGGLVQAGGSLRLSCAASGFPVIANVMYWYRQAPGKEREWVAAIDSSGEYAYYADSVKGRFTISRDNAKNTVYLQMNSLKPEDTAVYYCYVKVGSHYWGQGTQVTVSA", "values": [
      {"measurement": "stoichiometry N", "setting": "SbmA [2]", "result": 2, "unit": "Sb per SbmA dimer"},
      {"measurement": "stoichiometry N", "setting": "SbmA [3]", "result": 1, "unit": "sybody per SbmA dimer"}
    ]},
    {"binder": "SbmA (natural protein, Escherichia coli, SbmA, inner membrane peptide transporter of Escherichia coli, cloned from genomic DNA into pBXC3H; Homodimer; no cleavage is described; also called SbmA-like peptide transporter (SLiPT) family member; source: E. coli MC1061, purified (Nickel Sepharose, SEC) in DDM; for some samples reconstituted into MSP1E3D1 lipid nanodiscs) MFKSFFPKPGTFFLSAFVWALIAVIFWQAGGGDWVARITGASGQIPISAARFWSLDFLIFYAYYIVCVGLFALFWFIYSPHRWQYWSILGTALIIFVTWFLVEVGVAVNAWYAPFYDLIQTALSSPHKVTIEQFYREVGVFLGIALIAVVISVLNNFFVSHYVFRWRTAMNEYYMANWQQLRHIEGAAQRVQEDTMRFASTLENMGVSFINAIMTLIAFLPVLVTLSAHVPELPIIGHIPYGLVIAAIVWSLMGTGLLAVVGIKLPGLEFKNQRVEAAYRKELVYGEDDATRATPPTVRELFSAVRKNYFRLYFHYMYFNIARILYLQVDNVFGLFLLFPSIVAGTITLGLMTQITNVFGQVRGAFQYLINSWTTLVELMSIYKRLRSFEHELDGDKIQEVTHTLS", "values": [
      {"measurement": "stoichiometry N", "setting": "[4]", "result": 2}
    ]}
  ]
}
